{
  "source": "paper PMC4556779",
  "about": "(Redox Biology, 2015)",
  "proteins": {"B1": {"name": "sulfinylated Myc-Tsa1 (CP-SO2H), from H2O2-exposed cells (enzyme, S. cerevisiae, UniProt P34760 1-196, looked up)", "chain": "MVAQVQKQAPTFKKTAVVDGVFDEVSLDKYKGKYVVLAFIPLAFTFVCPTEIIAFSEAAKKFEEQGAQVLFASTDSEYSLLAWTNIPRKEGGLGPINIPLLADTNHSLSRDYGVLIEEEGVALRGLFIIDPKGVIRHITINDLPVGRNVDEALRLVEAFQWTDKNGTVLPCNWTPGAATIKPTVEDSKEYFEAANK", "modifications": "sulfinic acid (CP-SO2H) at the peroxidatic Cys (CP, C48)"}},
  "target": "the molecule itself",
  "test": "SEC",
  "data": [
    {"protein": "B1", "values": [
      {"measurement": "stoichiometry N", "value": "~20"}
    ]}
  ]
}
